Data taken from the RNAGym collection of RNA variant scans (doi:10.7554/elife.80360).

B1: Hairpin Ribozyme (parent)
chain: GUCCUCUUUCACGUGCGCGUGAAAGAGAGAAGUGAACCAGAGAAACACACGUUGUGGUAUAUUACCUGGUA

Variants of: B1
Experiment: self-cleavage, relative activity (ratio to wild type); higher = more cleavage; co-transcriptional

| Variant | self-cleavage |
| --- | --- |
| C12G G15U | 0.906 |
| G21U G51A | 0.822 |
| G19U A45G | 0.228 |
| A39U A43U | 0.223 |
| A39C A44C | 0.17 |
| C6A C12G | 0.623 |
| C6A A26G | 0.281 |
| C66G A71G | 0.16 |
| C12G G57U | 0.322 |
| G29U G42C | 0.115 |
| C3A A59C | 0.121 |
| A59G C66G | 0.228 |
| U14G C65A | 1.05 |
| G13A G19A | 0.806 |
| A24U G27A | 0.334 |
| A26U A39G | 0.207 |
| U7G A24G | 0.697 |
| A36G G56U | 0.183 |
| G21A A31C | 0.133 |
| C6A G42C | 0.239 |
| U20G U62A | 0.149 |
| U20A A39U | 0.296 |
| C46U A71U | 0.121 |
| U58G G68A | 0.208 |

| Variant | self-cleavage |
| --- | --- |
| C12A G56A | 0.182 |
| A24C C38G | 0.186 |
| A24C C38U | 0.5 |
| A31C A39G | 0.09 |
| A41G G56C | 0.165 |
| G1A G42U | 0.0643 |
| C37A A44C | 0.203 |
| U58G A64G | 0.341 |
| C10A A26C | 0.297 |
| G13U C48U | 0.125 |
| A28G C65G | 0.409 |
| U9G G29C | 0.129 |
| U7A G56U | 0.128 |
| G42U C66G | 0.155 |
| G42U C66U | 0.232 |
| C6U U55G | 0.375 |
| A30U U52A | 0.158 |
| C50G G69U | 0.156 |
| A59C U67C | 0.123 |
| A28U U63G | 0.105 |
| G42A C46G | 0.106 |
| C48G A59G | 0.129 |
| G29A A64G | 0.0994 |
| G15A A30C | 0.141 |

| Variant | self-cleavage |
| --- | --- |
| U7C U70C | 1.04 |
| C38A A64U | 0.179 |
| C38A A64G | 0.108 |
| G27U A43U | 0.106 |
| C10G G13A | 0.568 |
| C50A G51A | 0.288 |
| G17C A31C | 0.172 |
| G19U G25A | 0.33 |
| G1A A35C | 0.109 |
| A41G U52A | 0.669 |
| C16G G19A | 0.646 |
| C4U C65G | 0.0877 |
| C6G C50G | 0.109 |
| C3G U53G | 0.235 |
| A11U C37U | 0.524 |
| C16G U55C | 0.239 |
| A30U G54C | 0.0714 |
| U20A C37U | 0.511 |
| A35U U70C | 0.702 |
| A45G U55C | 0.124 |
| G19U G57A | 0.169 |
| G29U C66U | 0.106 |
| G15C U53C | 1.02 |
| U2C C3G | 0.214 |

| Variant | self-cleavage |
| --- | --- |
| A45U U62C | 0.127 |
| G29A U33G | 0.167 |
| G21A C46G | 0.254 |
| C3U G29A | 0.173 |
| C3G G68A | 0.085 |
| A22G A43U | 0.0762 |
| U2G C18A | 0.379 |
| U7A A39U | 0.546 |
| G56A A71C | 0.404 |
| C37U U52A | 0.672 |
| C10U C66G | 0.19 |
| C18G G19A | 0.907 |
| U7A C12U | 0.797 |
| C50A U52A | 0.293 |
| C38A A61C | 0.174 |
| U5G U62C | 0.129 |
| U9A U53G | 0.703 |
| A36U A59U | 0.132 |
| C65A U70C | 0.692 |
| C4A A11U | 0.258 |
| C6G G40A | 0.207 |
| G17C C48A | 0.173 |
| G27C A44U | 0.0991 |
| A11G A71U | 0.749 |

| Variant | self-cleavage |
| --- | --- |
| G19C C65U | 0.337 |
| C37A U55C | 0.1 |
| A39G G69C | 0.101 |
| A28G A64G | 0.425 |
| C3A G69C | 0.342 |
| C10G A35C | 0.726 |
| G51A U58G | 1.12 |
| U14G U53G | 0.287 |
| C4U A22C | 0.172 |
| A39G U53C | 0.273 |
| G17A A43G | 0.0835 |
| G1C A47U | 0.152 |
| A45C U63G | 0.136 |
| C3A G29U | 0.0763 |
| G51U U52C | 1 |
| C38A G51C | 0.223 |
| G15A A35U | 0.52 |
| C4U C37U | 0.243 |
| G29C A71G | 0.206 |
| C46A U70A | 0.205 |
| G34C A36U | 0.938 |
| C18U A26C | 0.525 |
| U8G G51U | 0.886 |
| G51C A64G | 0.521 |

| Variant | self-cleavage |
| --- | --- |
| A11C A49G | 0.629 |
| C16U A71C | 1.41 |
| G42C C65U | 0.215 |
| G54C G69C | 0.0871 |
| A23C A41G | 0.928 |
| U7G G19U | 0.414 |
| A39C U60C | 0.784 |
| C10U G32A | 0.176 |
| C6G C16U | 0.627 |
| C10A C48U | 0.0572 |
| G1C U2A | 0.251 |
| U20C U63A | 0.116 |
| C12G A49G | 0.462 |
| U7C C12U | 0.89 |
| C38U A43C | 0.0947 |
| A44U G51U | 0.096 |
| U2C C6A | 0.0756 |
| C10U U67G | 0.311 |
| C37A G54U | 0.269 |
| U9C G27C | 0.109 |
| A61G U63G | 0.0586 |
| C48U U67C | 0.11 |
| A44C A49G | 0.22 |
| G17U U20A | 0.59 |

| Variant | self-cleavage |
| --- | --- |
| A45U G69C | 0.0735 |
| A22U U53C | 0.897 |
| A22G U62C | 0.276 |
| U5A A59G | 0.213 |
| C38U U67C | 0.121 |
| C6G A24G | 0.337 |
| C48G A71C | 0.231 |
| G1U C4G | 0.213 |
| C16U A43U | 0.134 |
| G54C U63C | 0.099 |
| A31C U55C | 0.208 |
| U8G G68A | 0.119 |
| C18A A23G | 1.02 |
| A31C U52A | 0.28 |
| U55C C66U | 0.157 |
| C6G G13U | 0.27 |
| G40C A45U | 0.267 |
| U9G G17A | 0.571 |
| G25U C46A | 0.205 |
| C4A U58A | 0.113 |
| U14G G17U | 0.513 |
| A24C G40C | 0.185 |
| A64C U67A | 0.0615 |
